Laboratory results reported in US20240360194A1, “New Peptides as Potent and Selective GIP Receptor Agonists” (Sanofi, priority 2021, published 2024).
Numbered stars: 1 amine (or outer) side, 2 acyl side, 3 side chain; on linkers, the order of the positions; unused ones are H or OH. Square brackets hold non-standard residues; d marks the D form. Side chains are listed from the residue outwards. Ends that are not written are not given here. * marks the point of attachment. C18 diacid = O=C(O)CCCCCCCCCCCCCCCCC(=O)*; γGlu = O=C(O)[C@H](CCC(=O)[*:2])N[*:1]; AEEA = NCCOCCOCC(=O)O; Aib = CC(C)(N)C(=O)O

Legend:
[1] = molecular target: human GLP-1 receptor (hGLP-1R) (Homo sapiens, UniProt P43220); assay: Binding assay, displacement of [125I]GLP-1 from HEK-293 membranes over-expressing GLP-1R (SPA); settings: [125I]GLP-1 displacement
Sequence of human GLP-1 receptor (hGLP-1R) (P43220 24-463): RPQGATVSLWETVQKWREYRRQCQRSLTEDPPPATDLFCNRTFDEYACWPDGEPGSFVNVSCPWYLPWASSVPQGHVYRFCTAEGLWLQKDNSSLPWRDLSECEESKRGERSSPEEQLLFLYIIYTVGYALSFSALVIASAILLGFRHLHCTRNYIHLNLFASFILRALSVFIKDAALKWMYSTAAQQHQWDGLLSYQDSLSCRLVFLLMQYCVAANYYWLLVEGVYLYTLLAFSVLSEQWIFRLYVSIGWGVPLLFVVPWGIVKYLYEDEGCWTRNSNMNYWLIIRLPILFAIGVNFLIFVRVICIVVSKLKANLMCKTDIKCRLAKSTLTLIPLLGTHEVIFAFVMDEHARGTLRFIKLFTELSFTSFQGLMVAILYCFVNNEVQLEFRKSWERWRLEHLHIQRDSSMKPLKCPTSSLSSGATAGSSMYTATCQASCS
Experimental: (1) Preparation of Membranes from HEK-293 Cells Over-Expressing GIPR or GLP-1R
HEK-293 cells recombinantly over-expressing GIPR or GLP-1R were grown to 50% confluency, washed with warm 1×PBS (Gibco) and detached in HEPES/EDTA-buffer (100 mM HEPES pH 7.5, 5 mM EDTA). Cells were harvested by centrifugation at 4° C. and 3000×g and the pellets were stored at −80° C. until further processing.
After thawing on ice, pellets were resuspended in HEPES/EDTA-buffer and homogenized on ice for 1 min using Ultra-Turray T25. After subsequent sonification the cell debris was removed by centrifugation at 1000×g and 4° C. Supernatants were then ultra-centrifuged at 100000×g and 4° C. under vacuum for 30 min. Pellets were resuspended in HEPES/EDTA/NaCl-buffer (20 mM HEPES, 1 mM EDTA, 150 mM NaCl; add 1 Complete Mini Protease inhibitor cocktail to 10 ml buffer) and protein content was determined via BCA-Protein assay.
(2) Measurement of Binding Activity of Test Compounds to Human GIPR or GLP-1R

[2] = molecular target: T1, human GIP receptor (hGIPR) (Homo sapiens, UniProt P48546); assay: In vitro cellular cAMP assay for GIP receptor efficacy (HEK-293 cell line over-expressing receptor); assay type: cell-based; settings: EC50 hGIPR 0.1% BSA, HEK-293, 0.1% BSA
T1 sequence (P48546 22-466): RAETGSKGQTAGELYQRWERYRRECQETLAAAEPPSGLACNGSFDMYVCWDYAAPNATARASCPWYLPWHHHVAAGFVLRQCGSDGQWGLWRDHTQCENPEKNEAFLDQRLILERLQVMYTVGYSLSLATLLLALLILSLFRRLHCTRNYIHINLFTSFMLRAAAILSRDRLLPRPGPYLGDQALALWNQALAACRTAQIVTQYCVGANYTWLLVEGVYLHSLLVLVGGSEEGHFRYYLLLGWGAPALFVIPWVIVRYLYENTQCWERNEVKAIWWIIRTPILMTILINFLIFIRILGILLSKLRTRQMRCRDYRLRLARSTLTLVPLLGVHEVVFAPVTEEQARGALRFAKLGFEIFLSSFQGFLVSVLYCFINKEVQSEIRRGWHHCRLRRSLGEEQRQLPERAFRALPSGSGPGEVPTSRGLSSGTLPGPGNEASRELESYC

[3] = molecular target: T1, human GIP receptor (hGIPR); assay: Binding assay, displacement of [125I]GIP from HEK-293 membranes over-expressing GIPR (SPA); settings: [125I]GIP displacement
Outline: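 Membranes from HEK-293 cells over-expressing human GIPR or GLP-1R, isolated by homogenising, sonicating and ultracentrifuging at 100000×g into HEPES/EDTA/NaCl buffer with protease inhibitors, were used for binding.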

[4] = molecular target: T2, human GIP receptor (human, UniProt P48546 22-466); assay: cell-based or functional assay
T2 sequence (looked up): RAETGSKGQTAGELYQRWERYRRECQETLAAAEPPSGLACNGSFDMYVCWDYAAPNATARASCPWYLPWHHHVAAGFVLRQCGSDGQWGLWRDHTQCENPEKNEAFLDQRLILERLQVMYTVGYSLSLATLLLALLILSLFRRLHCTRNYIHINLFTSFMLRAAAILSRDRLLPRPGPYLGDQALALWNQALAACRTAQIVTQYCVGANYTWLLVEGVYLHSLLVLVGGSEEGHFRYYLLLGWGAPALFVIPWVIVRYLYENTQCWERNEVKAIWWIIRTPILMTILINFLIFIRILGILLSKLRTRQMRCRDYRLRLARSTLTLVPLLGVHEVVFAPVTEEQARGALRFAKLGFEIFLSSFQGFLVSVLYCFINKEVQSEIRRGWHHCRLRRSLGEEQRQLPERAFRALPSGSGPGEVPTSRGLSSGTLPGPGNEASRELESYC

[5] = molecular target: human GLP-1 receptor (human, UniProt P43220 24-463); assay: cell-based or functional assay
[6] = molecular target: T2, human GIP receptor; assay: cell-based or functional assay; remark: listed apart in the source

CC[C@H](C)[C@H](NC(=O)[C@H](Cc1ccccc1)NC(=O)[C@H](CCC(=O)O)NC(=O)[C@H](CCC(=O)O)NC(=O)[C@H](CCC(N)=O)NC(=O)[C@H](Cc1c[nH]cn1)NC(=O)[C@@H](NC(=O)[C@H](CCCNC(=N)N)NC(=O)[C@H](CC(=O)O)NC(=O)[C@H](CCCCNC(=O)COCCOCCNC(=O)COCCOCCNC(=O)CC[C@H](NC(=O)CCCCCCCCCCCCCCCCC(=O)O)C(=O)O)NC(=O)C(C)(C)NC(=O)[C@@H](NC(=O)[C@H](CO)NC(=O)[C@H](CC(C)C)NC(=O)[C@H](CC(=O)O)NC(=O)[C@H](CO)NC(=O)[C@@H](NC(=O)[C@H](Cc1ccccc1)NC(=O)[C@@H](NC(=O)CNC(=O)[C@H](CCC(=O)O)NC(=O)C(C)(C)NC(=O)[C@@H](N)Cc1ccc(O)cc1)[C@@H](C)O)[C@@H](C)CC)[C@@H](C)CC)[C@@H](C)CC)C(=O)N[C@@H](CCC(=O)O)C(=O)N[C@@H](Cc1c[nH]c2ccccc12)C(=O)N[C@@H](CC(C)C)C(=O)N[C@@H](CC(C)C)C(=O)N[C@@H](C)C(=O)N[C@@H](CCC(N)=O)C(=O)N[C@@H](CCCNC(=N)N)C(=O)NCC(=O)O [SEQ ID NO: 13, H2N-Y-Aib-E-G-T-F-I-S-D-L-S-I-Aib-K[{AEEA}2-gGlu-C18OH]-D-R-I-H-Q-E-E-F-I-E-W-L-L-A-Q-R-G-OH]
IC50 [1]: 116 nM | EC50 [2]: 0.0285 nM | IC50 [3]: 0.9 nM

B1: SEQ ID NO: 35 (peptide)
peptide: Y[Aib]EGTFISDLSI[Aib]K([AEEA-AEEA-γGlu-C18 diacid])DRIHQEEFIQWLLAQGPSSGAPPPS-NH2
modifications: N-terminus assumed
SMILES: CC[C@H](C)[C@H](NC(=O)[C@H](Cc1ccccc1)NC(=O)[C@H](CCC(=O)O)NC(=O)[C@H](CCC(=O)O)NC(=O)[C@H](CCC(N)=O)NC(=O)[C@H](Cc1c[nH]cn1)NC(=O)[C@@H](NC(=O)[C@H](CCCNC(=N)N)NC(=O)[C@H](CC(=O)O)NC(=O)[C@H](CCCCNC(=O)COCCOCCNC(=O)COCCOCCNC(=O)CC[C@H](NC(=O)CCCCCCCCCCCCCCCCC(=O)O)C(=O)O)NC(=O)C(C)(C)NC(=O)[C@@H](NC(=O)[C@H](CO)NC(=O)[C@H](CC(C)C)NC(=O)[C@H](CC(=O)O)NC(=O)[C@H](CO)NC(=O)[C@@H](NC(=O)[C@H](Cc1ccccc1)NC(=O)[C@@H](NC(=O)CNC(=O)[C@H](CCC(=O)O)NC(=O)C(C)(C)NC(=O)[C@@H](N)Cc1ccc(O)cc1)[C@@H](C)O)[C@@H](C)CC)[C@@H](C)CC)[C@@H](C)CC)C(=O)N[C@@H](CCC(N)=O)C(=O)N[C@@H](Cc1c[nH]c2ccccc12)C(=O)N[C@@H](CC(C)C)C(=O)N[C@@H](CC(C)C)C(=O)N[C@@H](C)C(=O)N[C@@H](CCC(N)=O)C(=O)NCC(=O)N1CCC[C@H]1C(=O)N[C@@H](CO)C(=O)N[C@@H](CO)C(=O)NCC(=O)N[C@@H](C)C(=O)N1CCC[C@H]1C(=O)N1CCC[C@H]1C(=O)N1CCC[C@H]1C(=O)N[C@@H](CO)C(N)=O
notes: Synthetic peptide, 39 residues (Gln at 24)
EC50 hGIPR 0% HSA (cAMP, HEK-293) [4]: 0.00024 nM | EC50 hGIPR 0.1% BSA (cAMP, HEK-293) [4]: 0.0107 nM | EC50 hGLP-1R 0.1% BSA (cAMP, HEK-293) [5]: > 10 nM | hGIPR EC50 (cAMP, human adipocytes) [6]: 1.3 nM | hGIPR Emax (cAMP, human adipocytes) [6]: 120%
